In assay [1] the target is T1, human HER2 (ErbB2) expressed on the surface of cell lines and primary cells (human, UniProt P04626 23-1255). The assay is described as follows: cell-based or functional assay.
Assay [2] concerns the target T2, hErbB2-MMH (human HER2 ectodomain with C-terminal myc-myc-hexahistidine tag) (human, UniProt P04626 23-652).
T2 construct: also called Her2 ECD; Her2 protein
As to the kind of experiment: SPR (MASS-2), ADC captured on anti-human Fc, hErbB2-MMH in solution, 25 C. The procedure: (§1) Equilibrium dissociation constants (KD values) for hErbB2.mmh binding to anti-HER2×HER2 antibodies conjugated with either M830 or M1 were determined using a real-time surface plasmon resonance biosensor assay on a MASS-2 instrument. The MASS-2 sensor surface was derivatized by amine coupling with a monoclonal mouse anti-human Fc antibody (REGN2567) to capture anti-HER2×HER2 ADC and parent unmodified antibodies expressed with human constant regions. […] Human hErbB2 was prepared in-house expressing a C-terminal myc-myc-hexahistidine tag (hErbB2-MMH). […] Association of hErbB2-MMH to each of the captured ADCs and monoclonal antibodies was monitored for 3 minutes. Subsequently, hErbB2-MMH dissociation was monitored for 10 minutes in HBS-EP running buffer. Anti-human Fc surface was regenerated by a brief injection of 20 mM H₃PO₄. All binding kinetic experiments were performed at 25° C.
Kinetic association (kₐ) and dissociation (Kd) rate constants were determined by fitting the real-time sensorgrams to a 1:1 binding model using Scrubber 2.0c curve fitting software. All sensorgrams were double referenced by subtracting buffer injection sensorgram signal from the corresponding analyte sensorgram, thereby removing artifacts caused by dissociation of the antibody from the capture surface. Binding dissociation equilibrium constants (KD) and dissociative half-lives (t½) were calculated from the kinetic rate constants as: […]

For assay [3], the target named is T1, human HER2 (ErbB2) expressed on the …. As to the kind of experiment: cell-based or functional assay. This is another data set of the same source.
The target of assay [4] is T2, hErbB2-MMH (human HER2 ectodomain with …). As to the kind of experiment: SPR (MASS-2), antibody captured on anti-human Fc, hErbB2-MMH in solution, 25 C. As for the experimental part:
as §1
Kinetic association (kₐ) and dissociation (Kd) rate constants were determined by fitting the real-time sensorgrams to a 1:1 binding model using Scrubber 2.0c curve fitting software. […] Binding dissociation equilibrium constants (KD) and dissociative half-lives (t½) were calculated from the kinetic rate constants as: […]

The record followed here is patent publication US20240254255A1 (Regeneron, published 2024).

B1: BsAb2-Tubulysin 1A-LP (Anti HER2 BsAb2-PEG3-N3-Tubulysin 1A-LP) (bispecific antibody, human IgG4 S228P, kappa)
heavy 1: QVQLVESGGGVVQPGRSLRLSCEASGFTFSGYALHWVRQAPGKGLEWVTVISYDGSDKFYADSVKGRFTISRDNSKNTLYLQMNSLRTEDTALYYCAKDWGTYHWNYGHYNYVMDVWGQGTTVTVSSASTKGPSVFPLAPCSRSTSESTAALGCLVKDYFPEPVTVSWNSGALTSGVHTFPAVLQSSGLYSLSSVVTVPSSSLGTKTYTCNVDHKPSNTKVDKRVESKYGPPCPPCPAPEFLGGPSVFLFPPKPKDTLMISRTPEVTCVVVDVSQEDPEVQFNWYVDGVEVHNAKTKPREEQFNSTYRVVSVLTVLHQDWLNGKEYKCKVSNKGLPSSIEKTISKAKGQPREPQVYTLPPSQEEMTKNQVSLTCLVKGFYPSDIAVEWESNGQPENNYKTTPPVLDSDGSFFLYSRLTVDKSRWQEGNVFSCSVMHEALHNRFTQKSLSLSPGK
heavy 2: not shown
light: not shown
modifications: deglycosylated (PNGase F); Q295 carries azido-PEG3-amine clicked to Tubulysin 1A-LP
notes: Site-specific antibody-drug conjugate of BsAb2; also called H4H17087D-Tubulysin 1A-LP
B1: in assay [1], the “IC50 of cell killing, MDAMB231 cells (Cell Titer Glow, 6 days)” value was found to be 50 nM; the “IC50 of cell killing, MDAMB468 cells (Cell Titer Glow, 6 days)” value is 67 nM; the “IC50 of cell killing, T47D cells (Cell Titer Glow, 6 days)” value turned out to be 8 nM; the “IC50 of cell killing, primary breast (mammary epithelial) cells (Cell Titer Glow, 6 days)” value came out at 20 nM. In addition, in assay [1], the “IC50 of cell killing, primary lung epithelial cells (Cell Titer Glow, 6 days)” value was > 67 nM; the “IC50 of cell killing, primary myocardial cells (Cell Titer Glow, 6 days)” value worked out at 30 nM; the “IC50 of cell killing, primary prostate epithelial cells (Cell Titer Glow, 6 days)” value was > 67 nM. Also, in assay [2], the “Antigen Bound (RU)” value amounted to 72.7 RU, the Kd was ≤ 0.0431 nM, the koff was ≤ 1e-05 s⁻¹ and the kon amounted to 232000 M⁻¹ s⁻¹. In addition, in assay [2], the “t1/2” value is ≥ 1160 min.

B2: BsAb2-MCC-Maytansinoid A (bispecific antibody, human IgG4 S228P, kappa)
heavy 1: B1 heavy 1
heavy 2: not shown
light: not shown
modifications: SMCC-DM1 (M1) conjugate, attachment residues not stated
notes: Antibody-drug conjugate of BsAb2; also called BsAb2 conjugated with M1 (SMCC-DM1)
Consider B2, for which, in assay [2], the “Antigen Bound (RU)” value came out at 82.8 RU, binding was characterised by a dissociation constant (Kd) of 0.0469 nM, the koff was determined as 1.02e-05 s⁻¹ and the kon came to 218000 M⁻¹ s⁻¹. Further, in assay [2], the “t1/2” value was determined as 1130 min.

B3: BsAb2-CAMPT1 (bispecific antibody, human IgG4 S228P, kappa)
heavy 1: B1 heavy 1
heavy 2: not shown
light: not shown
modifications: Q295 carries a bis azido-alkyl substituted amine (bisSP1) clicked to CAMPT-1-LP
notes: Antibody-drug conjugate of BsAb2; also called BsAb2-Camp1
With B3, in assay [2], the “Antigen Bound (RU)” value came to 77 RU, the Kd was ≤ 0.0388 nM, the koff is ≤ 1e-05 s⁻¹ and the kon was 258000 M⁻¹ s⁻¹. Also, the “t1/2” value in assay [2] is 1160 min.

B4: BsAb1-MCC-Maytansinoid A (bispecific antibody, human IgG4 S228P, kappa)
heavy 1: EVQLVESGGGLAQPGGSLRLSCAASGFSISDYEIHWVRQVPGKGLEWVSGIGSAGNTYYPGAVKGRFTISRENAKNSLYLQVNSLTVGDTAVYYCARVWSPLYYFGLDVWGQGTTVTVSSASTKGPSVFPLAPCSRSTSESTAALGCLVKDYFPEPVTVSWNSGALTSGVHTFPAVLQSSGLYSLSSVVTVPSSSLGTKTYTCNVDHKPSNTKVDKRVESKYGPPCPPCPAPEFLGGPSVFLFPPKPKDTLMISRTPEVTCVVVDVSQEDPEVQFNWYVDGVEVHNAKTKPREEQFNSTYRVVSVLTVLHQDWLNGKEYKCKVSNKGLPSSIEKTISKAKGQPREPQVYTLPPSQEEMTKNQVSLTCLVKGFYPSDIAVEWESNGQPENNYKTTPPVLDSDGSFFLYSRLTVDKSRWQEGNVFSCSVMHEALHNRFTQKSLSLSPGK
heavy 2: not shown
light: not shown
modifications: SMCC-DM1 (M1) conjugate, attachment residues not stated
notes: Antibody-drug conjugate of BsAb1; also called BsAb1 conjugated with M1 (SMCC-DM1)
With B4, in assay [3], the “IC50 of cell killing, JIMT1 cells (Cell Titer Glow, 6 days)” value is 7 nM; the “IC50 of cell killing, MDAMB361 cells (Cell Titer Glow, 6 days)” value is 0.05 nM; the “IC50 of cell killing, MDAMB453 cells (Cell Titer Glow, 6 days)” value came to 0.1 nM; the “IC50 of cell killing, SKBR3 cells (Cell Titer Glow, 6 days)” value is 0.02 nM. In assay [3], the “IC50 of cell killing, ZR751 cells (Cell Titer Glow, 6 days)” value came out at 6 nM. Also, in assay [2], the “Antigen Bound (RU)” value was found to be 93.6 RU, the Kd was 0.512 nM and the “t1/2” value was 32.7 min.

B5: H4H17325D (BsAb1), HER2 x HER2 bispecific antibody (bispecific antibody, human IgG4 S228P, kappa)
heavy 1: B4 heavy 1
heavy 2: not shown
light: not shown
notes: Human IgG4 bispecific with a common light chain; also called bispecific antibody 1
For B5, the “t1/2” value in assay [4] came to 29 min.

B6: BsAb1-CAMPT1 (Anti-HER2 BsAb1-substituted alkyl amine-(N3)2-CAMPT-1-LP) (bispecific antibody, human IgG4 S228P, kappa)
heavy 1: B4 heavy 1
heavy 2: not shown
light: not shown
modifications: Q295 carries a bis azido-alkyl substituted amine (bisSP1) clicked to CAMPT-1-LP
notes: Antibody-drug conjugate of BsAb1; also called BsAb1-Camp1
B6: in assay [2], the “Antigen Bound (RU)” value worked out at 117 RU; the affinity, expressed as Kd, was 0.472 nM; the “t1/2” value was found to be 41 min.

B7: BsAb1-Tubulysin 1A-LP (Anti HER2 BsAb1-PEG3-N3-Tubulysin 1A-LP) (bispecific antibody, human IgG4 S228P, kappa)
heavy 1: B4 heavy 1
heavy 2: not shown
light: not shown
modifications: deglycosylated (PNGase F); Q295 carries azido-PEG3-amine clicked to Tubulysin 1A-LP
notes: Site-specific antibody-drug conjugate of BsAb1; also called HER2xHER2-M830
For B7, in assay [3], the “IC50 of cell killing, JIMT1 cells (Cell Titer Glow, 6 days)” value was determined as 0.07 nM; the “IC50 of cell killing, MDAMB361 cells (Cell Titer Glow, 6 days)” value stood at 0.003 nM; the “IC50 of cell killing, MDAMB453 cells (Cell Titer Glow, 6 days)” value was 0.02 nM; the “IC50 of cell killing, SKBR3 cells (Cell Titer Glow, 6 days)” value is 0.004 nM. Also, the “IC50 of cell killing, ZR751 cells (Cell Titer Glow, 6 days)” value in assay [3] worked out at 0.06 nM. For the same molecule, in assay [1], the “IC50 of cell killing, MDAMB231 cells (Cell Titer Glow, 6 days)” value came out at 40 nM; the “IC50 of cell killing, MDAMB468 cells (Cell Titer Glow, 6 days)” value was 50 nM; the “IC50 of cell killing, T47D cells (Cell Titer Glow, 6 days)” value stood at 8 nM; the “IC50 of cell killing, primary breast (mammary epithelial) cells (Cell Titer Glow, 6 days)” value is 25 nM. Besides, in assay [1], the “IC50 of cell killing, primary lung epithelial cells (Cell Titer Glow, 6 days)” value is > 67 nM; the “IC50 of cell killing, primary myocardial cells (Cell Titer Glow, 6 days)” value is 9 nM; the “IC50 of cell killing, primary prostate epithelial cells (Cell Titer Glow, 6 days)” value worked out at 30 nM. Moreover, in assay [2], the “Antigen Bound (RU)” value is 114 RU and the “t1/2” value is 33.5 min.

Broadly, the Kd is a measure of binding affinity in units of concentration. The low end stands for higher affinity, the high end for lower affinity. As a reminder, the koff is a measure of how fast the partners let go of each other. Broadly, the kon is the rate constant with which the complex forms. A lower kon goes with slower complex formation.
